Starred links: 1 amine or outer side, 2 acyl side, 3 side chain; linkers in the order of their positions; H or OH if unused. Non-standard residues stand in square brackets, D forms with d. NH(CH2)9CO = O=C(CCCCCCCCCN[*:1])[*:2]; Chg = N[C@H](C(=O)O)C1CCCCC1; Ac6c = NC1(C(=O)O)CCCCC1; Orn = NCCC[C@H](N)C(=O)O; Dap = NC[C@H](N)C(=O)O; Ac3c = NC1(C(=O)O)CC1; Aib = CC(C)(N)C(=O)O; Ahp = NCCCCCCC(=O)O; Ava = NCCCCC(=O)O; GABA = NCCCC(=O)O

The values that follow come from patent US20140011734A1 (Sanofi, published 2014).

First the molecules themselves.
B1: Cyclo[Leu-His-Asn-Leu-NH-(CH2)9-CO-Thr-Glu-Arg-Met-Ala] (peptide)
peptide: cyclo(LHNL[NH(CH2)9CO]TERMA)
SMILES: CSCC[C@@H]1NC(=O)[C@H](CCCNC(=N)N)NC(=O)[C@H](CCC(=O)O)NC(=O)[C@H]([C@@H](C)O)NC(=O)CCCCCCCCCNC(=O)[C@H](CC(C)C)NC(=O)[C@H](CC(N)=O)NC(=O)[C@H](Cc2c[nH]cn2)NC(=O)[C@H](CC(C)C)NC(=O)[C@H](C)NC1=O
B2: Cyclo[Leu-Orn-Asn-Leu-NH-(CH2)6-CO-Thr-Glu-Arg-Met-Ala] (peptide)
peptide: cyclo(L[Orn]NL[Ahp]TERMA)
SMILES: CSCC[C@@H]1NC(=O)[C@H](CCCNC(=N)N)NC(=O)[C@H](CCC(=O)O)NC(=O)[C@H]([C@@H](C)O)NC(=O)CCCCCCNC(=O)[C@H](CC(C)C)NC(=O)[C@H](CC(N)=O)NC(=O)[C@H](CCCN)NC(=O)[C@H](CC(C)C)NC(=O)[C@H](C)NC1=O
B3: Cyclo[Leu-His-Asn-Leu-Gly-NH-(CH2)4-CO-Thr-Glu-Arg-Met-Ala] (peptide)
peptide: cyclo(LHNLG[Ava]TERMA)
SMILES: CSCC[C@@H]1NC(=O)[C@H](CCCNC(=N)N)NC(=O)[C@H](CCC(=O)O)NC(=O)[C@H]([C@@H](C)O)NC(=O)CCCCNC(=O)CNC(=O)[C@H](CC(C)C)NC(=O)[C@H](CC(N)=O)NC(=O)[C@H](Cc2c[nH]cn2)NC(=O)[C@H](CC(C)C)NC(=O)[C@H](C)NC1=O
B4: Cyclo[Leu-His-Asn-Leu-Dpr-NH-(CH2)3-CO-Thr-Glu-Arg-Met-Ala] (peptide)
peptide: cyclo(LHNL[Dap][GABA]TERMA)
SMILES: CSCC[C@@H]1NC(=O)[C@H](CCCNC(=N)N)NC(=O)[C@H](CCC(=O)O)NC(=O)[C@H]([C@@H](C)O)NC(=O)CCCNC(=O)[C@H](CN)NC(=O)[C@H](CC(C)C)NC(=O)[C@H](CC(N)=O)NC(=O)[C@H](Cc2c[nH]cn2)NC(=O)[C@H](CC(C)C)NC(=O)[C@H](C)NC1=O
B5: Cyclo[Leu-His-Asn-Leu-NH-(CH2)6-CO-Thr-Glu-Arg-Chg-Ala] (peptide)
peptide: cyclo(LHNL[Ahp]TER[Chg]A)
SMILES: CC(C)C[C@@H]1NC(=O)[C@H](C)NC(=O)[C@H](C2CCCCC2)NC(=O)[C@H](CCCNC(=N)N)NC(=O)[C@H](CCC(=O)O)NC(=O)[C@H]([C@@H](C)O)NC(=O)CCCCCCNC(=O)[C@H](CC(C)C)NC(=O)[C@H](CC(N)=O)NC(=O)[C@H](Cc2c[nH]cn2)NC1=O
B6: Cyclo[Leu-His-Asn-Leu-NH-(CH2)3-CO-Aib-Thr-Glu-Arg-Met-Ala] (peptide)
peptide: cyclo(LHNL[GABA][Aib]TERMA)
SMILES: CSCC[C@@H]1NC(=O)[C@H](CCCNC(=N)N)NC(=O)[C@H](CCC(=O)O)NC(=O)[C@H]([C@@H](C)O)NC(=O)C(C)(C)NC(=O)CCCNC(=O)[C@H](CC(C)C)NC(=O)[C@H](CC(N)=O)NC(=O)[C@H](Cc2c[nH]cn2)NC(=O)[C@H](CC(C)C)NC(=O)[C@H](C)NC1=O
B7: Cyclo[Leu-His-Asn-Leu-NH-(CH2)3-CO-Ac3-Thr-Glu-Arg-Met-Ala] (peptide)
peptide: cyclo(LHNL[GABA][Ac3c]TERMA)
SMILES: CSCC[C@@H]1NC(=O)[C@H](CCCNC(=N)N)NC(=O)[C@H](CCC(=O)O)NC(=O)[C@H]([C@@H](C)O)NC(=O)C2(CC2)NC(=O)CCCNC(=O)[C@H](CC(C)C)NC(=O)[C@H](CC(N)=O)NC(=O)[C@H](Cc2c[nH]cn2)NC(=O)[C@H](CC(C)C)NC(=O)[C@H](C)NC1=O

For the assay, the target named is T1, blood platelet receptor glycoprotein Ib-IX-V complex (GPIb) (human, UniProt P07359 17-652; P13224 26-206; P14770 17-177; P40197 17-560).
T1 construct: whole, on cells; also called GPIb complex; GPIb receptor
T1 sequence (P07359 17-652, chain 1 of 4): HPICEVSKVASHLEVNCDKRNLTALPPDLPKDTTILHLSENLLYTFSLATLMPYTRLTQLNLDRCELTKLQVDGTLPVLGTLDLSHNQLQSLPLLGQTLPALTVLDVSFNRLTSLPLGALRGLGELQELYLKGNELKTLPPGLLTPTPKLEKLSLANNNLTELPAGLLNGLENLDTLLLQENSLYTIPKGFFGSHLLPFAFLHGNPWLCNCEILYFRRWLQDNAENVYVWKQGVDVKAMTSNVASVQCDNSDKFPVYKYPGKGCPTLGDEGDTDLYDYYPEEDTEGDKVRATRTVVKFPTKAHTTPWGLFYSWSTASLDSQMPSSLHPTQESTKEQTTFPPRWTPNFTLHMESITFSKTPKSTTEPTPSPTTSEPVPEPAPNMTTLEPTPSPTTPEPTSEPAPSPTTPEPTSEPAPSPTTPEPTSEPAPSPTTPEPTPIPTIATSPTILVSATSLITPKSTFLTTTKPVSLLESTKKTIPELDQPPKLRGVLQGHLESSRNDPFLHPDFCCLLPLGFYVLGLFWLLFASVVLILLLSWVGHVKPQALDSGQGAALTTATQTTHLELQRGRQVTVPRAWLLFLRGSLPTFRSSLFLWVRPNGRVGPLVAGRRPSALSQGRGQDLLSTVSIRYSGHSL
T1 sequence (P13224 26-206, chain 2 of 4): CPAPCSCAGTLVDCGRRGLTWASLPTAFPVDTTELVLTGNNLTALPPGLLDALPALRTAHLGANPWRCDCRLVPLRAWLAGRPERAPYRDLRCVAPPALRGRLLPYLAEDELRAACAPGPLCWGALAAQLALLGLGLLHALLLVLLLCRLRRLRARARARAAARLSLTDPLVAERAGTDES
T1 sequence (P14770 17-177, chain 3 of 4): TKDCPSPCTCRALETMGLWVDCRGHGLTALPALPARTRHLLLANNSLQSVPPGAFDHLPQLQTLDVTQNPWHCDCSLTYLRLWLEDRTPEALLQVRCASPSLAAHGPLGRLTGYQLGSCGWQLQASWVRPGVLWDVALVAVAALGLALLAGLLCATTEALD
T1 sequence (P40197 17-560, chain 4 of 4): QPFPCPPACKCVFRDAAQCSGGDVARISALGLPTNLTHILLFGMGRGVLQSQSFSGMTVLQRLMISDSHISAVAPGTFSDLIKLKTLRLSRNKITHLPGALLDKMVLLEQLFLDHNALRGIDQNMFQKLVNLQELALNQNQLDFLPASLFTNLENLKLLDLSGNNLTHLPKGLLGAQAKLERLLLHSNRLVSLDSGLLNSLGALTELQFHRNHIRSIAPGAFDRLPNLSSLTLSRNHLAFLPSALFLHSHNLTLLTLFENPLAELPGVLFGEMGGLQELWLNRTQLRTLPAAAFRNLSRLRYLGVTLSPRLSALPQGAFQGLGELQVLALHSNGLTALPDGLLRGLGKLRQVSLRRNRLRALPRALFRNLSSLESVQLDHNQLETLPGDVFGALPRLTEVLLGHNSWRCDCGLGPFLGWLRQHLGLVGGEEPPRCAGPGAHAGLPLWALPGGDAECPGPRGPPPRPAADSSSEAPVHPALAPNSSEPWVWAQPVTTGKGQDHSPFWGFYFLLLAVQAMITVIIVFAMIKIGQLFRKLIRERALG
As to the kind of experiment: inhibition of static adhesion of human platelets to coated vWF-A1; grade B = IC50 between 1 µM and 10 µM. As for the experimental part: Platelet rich plasma was carefully transferred again to fresh containers, PGE1 (0.5 μg/ml, Sigma) was added and the suspension was allowed to rest for 5 min. This was followed by another centrifugation step for 15 min at 360 g. The supernatant was discarded and the cell pellets were carefully resuspended in tyrode buffer (NaCl, 137 mM (Sigma S-3014); KCl, 2.7 mM (Sigma P-9541); NaHCO₃,12 mM (Riedel deHaen 31437); NaH₂PO₄×2H₂O, 0.36 mM (Merck 6345); MgCl₂×6 H₂O, 1 mM (Sigma M-2670); Hepes, 10 mM (Sigma H-1016); glucose, 5.6 mM (Merck 8342); BSA, 0.1% (Sigma A7906)), and PGE1 (0.25 μg/ml) was added. After 5 min of resting the suspension was spun down for 15 min at 300 g. The supernatant was discarded and the pellets were carefully resuspended in TBS buffer (Tris-HCl, 50 mM (Fluka 93371); NaCl, 120 mM (Sigma S-3014); KCl, 2.7 mM (Sigma P-9541); CaCl₂, 0.05 mM (Sigma C-3306); MgCl₂×6 H₂O, 2 mM (Sigma M-2670); BSA, 0.1% (Sigma A7906); pH 7.4). The platelet count was adjusted to 2×10⁵ cells/μl, and the suspensions from individual donors were pooled at this stage. The platelets were allowed to rest for 30 min at room temperature before calcein AM (2.5 μM per 2×10⁵ cells/pi (Molecular Probes C-3099)) was added. This was followed by 15 min incubation in the dark. Cells were diluted to 5×10⁴ cells/μl and ReoPro (3 μg/ml (Centocor B. V., Leiden, N L)) was added, followed by a 10 min incubation period in the dark before adding the platelets to the assay plates.
96 well plates (Greiner hb, black, clear bottom, F, 655097) were coated with human recombinant vWF-A1 domain (1.5 μg/well, AA 475-706, expressed in E. coli) in Tris buffer (pH 7.4; Tris-HCl, 25 mM; NaCl, 150 mM) and incubated for 1 h at room temperature. After washing the wells 3× with TBS, blocking buffer (TBS with 5% BSA) was added followed by an incubation for 1 h. The wells were washed again 3× with TBS before 200 μl TBS were added to each well, preventing them from drying out. TBS was flicked out and serial dilutions of the test compound were added. The washed and calcein AM labeled thrombocytes were added to the wells (2.5×10⁶ cells/well). Following an adhesion period of 1.5 h in the dark the wells were washed 3× with TBS. Measurement of fluorescence per well was performed in a SpectraMax M5 reader (Molecular Devices). From the raw data % inhibition and IC₅₀ values were calculated.
The molecule B1 returned an IC50 of 1 to 10 µM. Take B2: the IC50 is 1 to 10 µM. The molecule B3 registered an IC50 of 1 to 10 µM. Molecule B4 yielded an IC50 of 1 to 10 µM.

On to B5, for which the IC50 fell in the range of 1 to 10 µM. As to B6, the IC50 was in the range of 1 to 10 µM. The result for B7 reads 1 to 10 µM; that for cyclo([Ac6c]HNL[Ahp]TERMA) [Cyclo[Ac6-His-Asn-Leu-NH-(CH2)6-CO-Thr-Glu-Arg-Met-Ala]], 1 to 10 µM.

Broadly, the IC50 is the concentration at which inhibition is half-maximal. A lower IC50 goes with greater potency in that assay.
